The values that follow come from paper PMC9945442.

The target of the data set is Argonaute 2 (AGO2) (human (Homo sapiens), UniProt Q9UKV8 1-859). The experiment in a line: northern blot of purified loaded AGO2.
Argonaute 2 (AGO2), sequence (Q9UKV8 whole entry): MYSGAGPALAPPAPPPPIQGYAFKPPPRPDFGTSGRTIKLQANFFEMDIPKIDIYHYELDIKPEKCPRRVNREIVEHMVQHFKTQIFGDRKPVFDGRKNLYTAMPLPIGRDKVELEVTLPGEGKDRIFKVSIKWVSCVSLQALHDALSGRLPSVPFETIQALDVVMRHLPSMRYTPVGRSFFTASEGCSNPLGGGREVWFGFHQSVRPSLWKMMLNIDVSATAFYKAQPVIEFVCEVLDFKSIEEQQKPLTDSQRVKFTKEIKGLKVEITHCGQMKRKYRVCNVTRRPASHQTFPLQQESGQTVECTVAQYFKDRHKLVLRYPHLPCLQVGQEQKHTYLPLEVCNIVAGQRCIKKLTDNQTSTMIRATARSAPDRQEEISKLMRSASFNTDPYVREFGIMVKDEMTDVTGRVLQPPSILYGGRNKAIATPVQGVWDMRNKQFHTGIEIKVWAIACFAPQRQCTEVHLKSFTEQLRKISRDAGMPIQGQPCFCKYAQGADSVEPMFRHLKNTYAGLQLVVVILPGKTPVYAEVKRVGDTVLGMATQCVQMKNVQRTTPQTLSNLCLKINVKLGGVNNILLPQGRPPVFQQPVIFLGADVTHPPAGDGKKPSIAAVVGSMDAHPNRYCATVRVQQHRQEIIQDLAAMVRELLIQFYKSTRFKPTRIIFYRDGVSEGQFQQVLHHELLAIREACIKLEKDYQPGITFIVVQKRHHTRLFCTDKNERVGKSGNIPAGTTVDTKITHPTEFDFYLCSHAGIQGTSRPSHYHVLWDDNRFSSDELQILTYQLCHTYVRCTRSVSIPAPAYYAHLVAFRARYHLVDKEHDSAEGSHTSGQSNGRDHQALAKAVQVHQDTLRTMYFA

B1: miR-34a (ssRNA)
RNA: UGGCAGUGUCUUAGCUGGUUGU
Consider B1, for which the binding result is recorded as “binds”.
